In US5874209:

Key:
[1] = tested on: LAP(Asp105)/GAL4 chimera S105D (/ Saccharomyces cerevisiae); assay: cell_activity; settings: luciferase relative to LAP(Ser105)/GAL4
[2] = tested on: T1, NF-IL6/LAP (wild type, C/EBP beta), P21272-2; assay: cell_activity; settings: increase in CAT transactivation with PKC alpha plus TPA, HepG2
T1 sequence: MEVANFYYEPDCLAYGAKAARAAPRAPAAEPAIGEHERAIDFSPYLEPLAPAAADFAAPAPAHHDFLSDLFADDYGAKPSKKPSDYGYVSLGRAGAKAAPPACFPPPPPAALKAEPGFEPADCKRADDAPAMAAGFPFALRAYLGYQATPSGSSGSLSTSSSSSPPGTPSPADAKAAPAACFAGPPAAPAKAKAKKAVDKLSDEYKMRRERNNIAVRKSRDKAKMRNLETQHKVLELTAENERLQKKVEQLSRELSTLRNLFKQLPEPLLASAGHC

Row | Substance | activity [1] | activity [2]
1 | 5xGAL4-LUC reporter GAL4 sites | 3 fold | –
2 | D-CAT reporter (albumin D-site) | – | 5 fold
